Data: patent EP4413993A1 (Dompe' Farmaceutici S.P.A., dated 2024)
Several values for one entry are separate records, joined by “and”; a condition that tells them apart may be missing. Equal values may be shown once.

Molecular target: TrkB receptor on rat C6 glioma cells (rat, UniProt Q63604 32-821)
Assay: cell-based or functional assay

Chain of TrkB receptor on rat C6 glioma cells (Q63604 32-821): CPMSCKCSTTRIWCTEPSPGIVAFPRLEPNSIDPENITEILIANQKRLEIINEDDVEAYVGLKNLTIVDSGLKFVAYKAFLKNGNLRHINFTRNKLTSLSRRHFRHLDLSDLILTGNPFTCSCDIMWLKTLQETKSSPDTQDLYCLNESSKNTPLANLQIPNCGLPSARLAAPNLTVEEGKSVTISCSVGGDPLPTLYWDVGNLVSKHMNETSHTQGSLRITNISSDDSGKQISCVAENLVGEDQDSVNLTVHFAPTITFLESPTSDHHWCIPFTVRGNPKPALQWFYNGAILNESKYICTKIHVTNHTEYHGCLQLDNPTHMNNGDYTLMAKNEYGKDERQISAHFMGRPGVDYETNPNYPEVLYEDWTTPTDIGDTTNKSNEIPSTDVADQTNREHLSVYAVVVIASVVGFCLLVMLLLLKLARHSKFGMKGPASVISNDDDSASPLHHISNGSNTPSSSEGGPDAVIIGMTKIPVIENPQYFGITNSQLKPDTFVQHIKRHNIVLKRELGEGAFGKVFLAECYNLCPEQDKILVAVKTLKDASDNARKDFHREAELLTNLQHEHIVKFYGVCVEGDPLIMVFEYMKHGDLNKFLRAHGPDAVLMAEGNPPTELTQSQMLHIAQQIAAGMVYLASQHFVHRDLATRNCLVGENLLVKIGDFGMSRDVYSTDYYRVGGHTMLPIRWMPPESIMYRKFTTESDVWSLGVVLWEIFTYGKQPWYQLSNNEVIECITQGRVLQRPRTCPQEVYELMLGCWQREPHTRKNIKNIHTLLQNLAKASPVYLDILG

B1: recombinant human brain-derived neurotrophic factor (BDNF) (ligand)
chain: HSDPARRGELSVCDSISEWVTAADKKTAVDMSGGTVTVLEKVPVSKGQLKQYFYETKCNPMGYTKEGCRGIDKRHWNSQCRTTQSYVRALTMDSKKRIGWRFIRIDTSCVCTLTIKRGR
**Q.** How did the “EC50, concentration of rhBDNF required to induce 50% proliferation of C6 cells (MTS assay, 48h)” value turn out when B1 was run?
**A.** The value was ~3 µg/mL and ~0.11 µM.
